# Earlier results as cited in publication PMC6934062.
# pKd: −log10 of the molar value.
# Target: TDP-43 NTD (Homo sapiens) (UniProt Q13148)
substance,measurement,value
TDP-43 NTD (from UniProt Q13148),pKd,4.15
